Patent publication US20260049151A1 (SHENGHE CHINA BIOPHARMACEUTICAL, published 2026)
Like-named read-outs stand apart in the source and are kept apart here. One block for each binder: values may come before it.

What was measured:
[1] = molecular target: T1, Human 4-1BB His (human, UniProt Q07011 24-186); assay: ELISA: Human 4-1BB His coated (0.2 ug/mL), antibody titrated, goat anti-human IgG Fc detection (Example 3)
T1 construct: Bought protein; lots 198-2146F1-W6 and 2407c-214FF1-YC; also called human 4-1BB protein; 4-1BB protein; not shown: His tag
Protocol: (§1) Human 4-1BB His (manufacturer: Acro, CAT: 41B-H5258, LOT: 198-2146F1-W6) was diluted to 0.2 μg/mL with a coating solution (1×PBS, pH7.4), and coated in 96-well ELISA plate at 100 μL/well overnight at 4° C. The coating solution was poured off. Each well was washed with 1×PBST at 300 μL, washed 4 times with a plate washer, and patted dry on a flat paper. It was blocked with 3% skim milk powder at 300 μL/well, and incubated at 37° C. for 1 h. The blocking solution was poured off, washed 4 times with a plate washer, and patted dry on a flat paper. Negative control and positive control were set up. […] The variable region of the antibody sequence of the positive control consists of SEQ ID NO: 15 and SEQ ID NO: 19, with the addition of the constant region of human IgG1 (SEQ ID NO: 46 and SEQ ID NO: 47). The positive control and antibody were diluted to 10 μg/mL with 3% skim milk powder as the starting concentration, and then diluted by 3-fold gradient (11 gradients in total), and a blank well was set up and only the diluent was added. It was incubated at 37° C. for 1 h at 100 μL/well. The liquid in the well was discarded, washed 4 times with a plate washer, and patted dry on a flat paper. Goat anti-human IgG Fc was diluted with 3% skim milk powder at 1:20000, and incubated at 37° C. for 1 h at 100 μL/well. It was washed 6 times with a plate washer, and patted dry on a flat paper. TMB color developing solution was added at 100 μL/well, and wrapped with aluminum foil. Color development was performed at 37° C. in the dark for 8 min. Termination solution 1M HCl was added to terminate the color development reaction at 100 μL/well. Readings were taken at 450 nm on an ELISA reader.

[2] = molecular target: T2, Human-TNFR2-His (human, UniProt P20333 23-257); assay: ELISA: Human-TNFR2-His coated (0.1 ug/mL), antibody titrated, goat anti-human IgG Fc detection (Example 2)
T2 construct: Bought protein; also called human TNFR2 protein; TNFR2 protein; not shown: His tag
T2 sequence (looked up): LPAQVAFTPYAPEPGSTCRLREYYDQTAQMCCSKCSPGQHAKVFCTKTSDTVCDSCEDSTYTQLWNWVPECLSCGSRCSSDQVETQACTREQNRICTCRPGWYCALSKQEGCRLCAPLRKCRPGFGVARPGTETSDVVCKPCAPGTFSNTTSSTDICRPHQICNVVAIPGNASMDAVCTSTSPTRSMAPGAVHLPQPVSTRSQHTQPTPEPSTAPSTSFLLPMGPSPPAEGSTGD

[3] = molecular target: T2, Human-TNFR2-His; assay: BLI, antibody on AHC sensor, 100 nM TNFR2-His in solution
Protocol: The AHC sensor was soaked in 0.02% PBST (0.02% Tween 20, pH 7.4, 1×PBS) as a buffer for 600 s to remove the sucrose covering the sensor surface. The AHC sensor was equilibrated with 0.02% PBST (0.02% Tween 20, pH 7.4, 1×PBS) as a buffer for 60 s, the antibody in the sample plate was solidified for 300 s, and the secondary equilibration buffer was used for 180 s. 100 nM human-TNFR2-His (manufacturer: SINO, CAT: 10417-H08H, LOT: LC15NO0412) protein was bound to the antibody for 300 s and then dissociated for 600 s. After dissociation, 10 mM glycine (pH 2.0) was used as a regeneration buffer for 30 s. The sensor was regenerated with 10 mM glycine (pH 2.0).

[4] = molecular target: T2, Human-TNFR2-His; assay: ELISA: Human-TNFR2-His coated (0.1 ug/mL), antibody titrated, goat anti-human IgG Fc detection (Example 2); remark: listed apart in the source
Protocol: (§2) Human-TNFR2-His (manufacturer: SINO, CAT: 10417-H08H, LOT: LC15NO0412) was diluted to 0.1 μg/mL with a coating solution (1×PBS, pH7.4), and coated in 96-well ELISA plate at 100 µL/well overnight at 4° C. The coating solution was poured off. Each well was washed with 1×PBST at 300 μL, washed 4 times with a plate washer, and patted dry on a flat paper. It was blocked with 3% skim milk powder at 300 μL/well, and incubated at 37° C. for 1 h. The blocking solution was poured off, washed 4 times with a plate washer, and patted dry on a flat paper. Negative control and positive control were set up. […] The positive control and antibody were diluted to 10 μg/mL with 3% skim milk powder as the starting concentration, and then diluted by 3-fold gradient (11 gradients in total), and a blank well was set up and only the diluent was added. It was incubated at 37° C. for 1 h at 100 μL/well. The liquid in the well was discarded, washed 4 times with a plate washer, and patted dry on a flat paper. Goat anti-human IgG Fc was diluted with 3% skim milk powder at 1:10000, and incubated at 37° C. for 1 h at 100 μL/well. It was washed 6 times with a plate washer, and patted dry on a flat paper. TMB color developing solution was added at 100 μL/well, and wrapped with aluminum foil. Color development was performed at 37° C. in the dark for 8 min. Termination solution 1M HCl was added to terminate the color development reaction at 100 μL/well. Readings were taken at 450 nm on an ELISA reader.

[5] = molecular target: T2, Human-TNFR2-His; assay: as above; remark: listed apart in the source
Protocol: as §2

[6] = molecular target: T2, Human-TNFR2-His; assay: as above; remark: listed apart in the source
Protocol: as §2

[7] = molecular target: T1, Human 4-1BB His; assay: ELISA: Human 4-1BB His coated (0.2 ug/mL), antibody titrated, goat anti-human IgG Fc detection (Example 3); remark: listed apart in the source
[8] = molecular target: T1, Human 4-1BB His; assay: as above; remark: listed apart in the source
Protocol: as §1

T1 sequence (Q07011 24-186 limits assumed): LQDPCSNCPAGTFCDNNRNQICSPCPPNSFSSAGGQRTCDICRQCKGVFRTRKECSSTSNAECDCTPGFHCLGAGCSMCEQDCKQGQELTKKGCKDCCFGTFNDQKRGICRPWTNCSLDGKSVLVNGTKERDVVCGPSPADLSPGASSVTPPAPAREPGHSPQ

EC50 (read off the curve) [1]: ~0.09 nM | EC50 (read off the curve) [2]: ~0.2 nM | Kd [3]: 1.82 nM | koff [3]: 0.000394 s⁻¹ | kon [3]: 217000 M⁻¹ s⁻¹
B1: Antibody J1 (bispecific antibody, human IgG1, kappa)
light: DIQMTQSPSSLSASLGDRVTISCSASQGISNYLNWYQQKPDGTVKLLIYYTSTLHSGVPSRFSGSGSGTDYTLTISSLQPEDIATYYCQQYSKLPWTFGGGTKLEIKRTVAAPSVFIFPPSDEQLKSGTASVVCLLNNFYPREAKVQWKVDNALQSGNSQESVTEQDSKDSTYSLSSTLTLSKADYEKHKVYACEVTHQGLSSPVTKSFNRGEC
heavy: not shown
notes: IgG1 subtype; full-length 4-1BB antibody with TNFR2 VHH at the C-terminus of the heavy chains

EC50 (read off the curve) [4]: ~0.04 nM | Kd [3]: 1.28 nM | koff [3]: 0.000394 s⁻¹ | kon [3]: 308000 M⁻¹ s⁻¹
B2: Antibody M1 (bispecific antibody, human IgG1, kappa)
light: B1 light
heavy: not shown
notes: IgG1 subtype; full-length 4-1BB antibody with TNFR2 VHH at the N-terminus of the heavy chains

EC50 (read off the curve) [1]: ~0.06 nM | EC50 (read off the curve) [5]: ~0.08 nM | Kd [3]: 0.241 nM | koff [3]: 6.64e-05 s⁻¹ | kon [3]: 276000 M⁻¹ s⁻¹
B3: Antibody H (bispecific antibody, human IgG1, kappa)
light: QVQLQESGPGLVKPSETLSLTCTVSGSSLTSYGVHWVRQPPGKCLEGLGVIWPGGSTNYNSALMSRVTISKDNSKSQVSLKMSSLTAADTAVYYCARVTGTWYFDVWGQGTTVTVSSGGGGSGGGGSGGGGSDIQMTQSPSSLSASLGDRVTISCSASQGISNYLNWYQQKPDGTVKLLIYYTSTLHSGVPSRFSGSGSGTDYTLTISSLQPEDIATYYCQQYSKLPWTFGCGTKLEIKGGGGSGGGGSGGGGSDIVMTQSPATLSVSPGERATLSCKASQNVGSNVDWYQQKPGQSPRVLIYKASIRYTGIPARFSGSGSGTEFTLTISILQSEDFAVYFCMQSKSYPITFGQGTKLEIKRTVAAPSVFIFPPSDEQLKSGTASVVCLLNNFYPREAKVQWKVDNALQSGNSQESVTEQDSKDSTYSLSSTLTLSKADYEKHKVYACEVTHQGLSSPVTKSFNRGEC
heavy: not shown
notes: IgG1 subtype; full-length TNFR2 antibody with 4-1BB scFv at the N-terminus of the light chains

EC50 (read off the curve) [6]: ~0.09 nM | EC50 (read off the curve) [7]: ~0.2 nM | EC50 (read off the curve) [8]: ~0.2 nM | EC50 (read off the curve) [2]: ~0.09 nM | Kd [3]: 0.207 nM | koff [3]: 8.04e-05 s⁻¹ | kon [3]: 389000 M⁻¹ s⁻¹
B4: Antibody E1 (bispecific antibody, human IgG1, kappa)
light: DIVMTQSPATLSVSPGERATLSCKASQNVGSNVDWYQQKPGQSPRVLIYKASIRYTGIPARFSGSGSGTEFTLTISILQSEDFAVYFCMQSKSYPITFGQGTKLEIKRTVAAPSVFIFPPSDEQLKSGTASVVCLLNNFYPREAKVQWKVDNALQSGNSQESVTEQDSKDSTYSLSSTLTLSKADYEKHKVYACEVTHQGLSSPVTKSFNRGEC
heavy: not shown
notes: IgG1 subtype; full-length TNFR2 antibody with 4-1BB scFv at the C-terminus of the heavy chains
